Measurements taken from paper PMC10872465 (Molecular cell, 2023).

T1: MBP-HDAC8 (UniProt Q9BY41 8-374)
T1 sequence (looked up): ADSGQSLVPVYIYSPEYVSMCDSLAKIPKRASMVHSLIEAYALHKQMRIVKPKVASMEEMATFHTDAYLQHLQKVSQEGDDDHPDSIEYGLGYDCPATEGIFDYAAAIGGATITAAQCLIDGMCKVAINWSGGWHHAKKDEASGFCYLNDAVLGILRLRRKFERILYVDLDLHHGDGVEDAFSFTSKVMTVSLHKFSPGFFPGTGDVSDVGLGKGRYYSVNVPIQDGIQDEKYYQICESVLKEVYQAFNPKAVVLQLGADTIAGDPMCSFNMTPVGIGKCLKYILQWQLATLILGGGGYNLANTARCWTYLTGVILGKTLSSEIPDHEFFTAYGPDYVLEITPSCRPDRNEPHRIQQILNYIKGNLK

B1: hRpn13 (1–150) (domain or fragment, human, UniProt Q16186 1-150, looked up)
chain: MTTSGALFPSLVPGSRGASNKYLVEFRAGKMSLKGTTVTPDKRKGLVYIQQTDDSLIHFCWKDRTSGNVEDDLIIFPDDCEFKRVPQCPSGRVYVLKFKAGSKRLFFWMQEPKTDQDEEHCRKVNEYLNNPPMPGALGASGSSGHELSAL

How the values were obtained:
Assay in all cases: NMR titration
[1] = molecular target: B1
[2] = molecular target: PADI4 (1–663) (UniProt Q9UM07 1-663)
[3] = molecular target: T1, MBP-HDAC8

Chain of PADI4 (1–663) (Q9UM07 whole entry): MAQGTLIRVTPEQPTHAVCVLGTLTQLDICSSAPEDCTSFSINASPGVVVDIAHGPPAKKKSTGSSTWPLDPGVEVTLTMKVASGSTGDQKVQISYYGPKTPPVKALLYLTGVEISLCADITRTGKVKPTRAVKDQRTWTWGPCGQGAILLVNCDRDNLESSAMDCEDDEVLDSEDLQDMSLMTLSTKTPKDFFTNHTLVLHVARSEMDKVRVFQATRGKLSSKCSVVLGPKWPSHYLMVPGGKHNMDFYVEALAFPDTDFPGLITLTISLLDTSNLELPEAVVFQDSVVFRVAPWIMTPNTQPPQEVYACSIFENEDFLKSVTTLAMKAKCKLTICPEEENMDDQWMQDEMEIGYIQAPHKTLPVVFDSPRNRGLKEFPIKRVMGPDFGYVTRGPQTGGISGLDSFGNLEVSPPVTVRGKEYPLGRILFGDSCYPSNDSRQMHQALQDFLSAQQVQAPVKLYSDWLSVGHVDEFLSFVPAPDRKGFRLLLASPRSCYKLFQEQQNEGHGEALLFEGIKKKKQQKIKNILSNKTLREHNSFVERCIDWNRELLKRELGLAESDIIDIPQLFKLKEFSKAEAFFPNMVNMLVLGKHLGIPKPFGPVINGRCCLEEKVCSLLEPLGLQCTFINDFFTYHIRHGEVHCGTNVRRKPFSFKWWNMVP

| binding result [1] | binding result [2] | binding result [3] | Binder |
| --- | --- | --- | --- |
| binds |  |  | QEPEPPEPFEYIDD (peptide, UniProt Q99460 940-953, looked up) [hRpn2 (940–953)] |
|  | binds | binds | B1 |
